These results are taken from publication PMC2291563, “SAM Domain-Based Protein Oligomerization Observed by Live-Cell Fluorescence Fluctuation Spectroscopy” (PLoS ONE, 2008).

The target in one series is T1, Ste50-mCherry (budding yeast (S288C background), UniProt P25344 1-346).
T1 construct: Ste50, SAM domain protein, budding yeast; tagged at the chromosomal locus; source: expressed from its chromosomal locus in live yeast cells (S288C background); not shown: mCherry, C-terminal, kept
T1 sequence (looked up): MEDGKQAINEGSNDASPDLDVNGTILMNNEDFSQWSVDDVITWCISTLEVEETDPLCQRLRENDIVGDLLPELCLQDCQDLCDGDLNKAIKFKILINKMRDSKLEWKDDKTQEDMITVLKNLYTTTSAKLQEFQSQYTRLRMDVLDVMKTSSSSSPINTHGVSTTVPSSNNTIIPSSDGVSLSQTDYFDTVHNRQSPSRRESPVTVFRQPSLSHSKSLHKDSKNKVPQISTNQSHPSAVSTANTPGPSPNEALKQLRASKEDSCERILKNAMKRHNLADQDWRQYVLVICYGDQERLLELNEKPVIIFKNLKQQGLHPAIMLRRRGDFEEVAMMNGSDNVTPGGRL
As to the kind of experiment: two-dimensional photon counting histogram (2dPCH); live yeast cells with Ste11-GFP and Ste50-mCherry, cytosolic pool; 50 µs bins; two-component fit; cycling cells, also after α-factor or NaCl. The settings on record: partners not purified.

Series [1] deals with the molecule itself. The experiment in a line: photon counting histogram (1dPCH), constrained two-component fit; live yeast cells treated with α-factor; monomer brightness fixed, oligomer brightness and numbers freely varied; subunits estimated from a linear extrapolation of GFP brightness.
Series [2] deals with the molecule itself. As to the kind of experiment: photon counting histogram (1dPCH), constrained two-component fit; live yeast cells at high salt (NaCl); monomer brightness fixed, oligomer brightness and numbers freely varied; subunits estimated from a linear extrapolation of GFP brightness.
Series [3] deals with the molecule itself. The experiment in a line: photon counting histogram (1dPCH), constrained two-component fit; live yeast cells, cycling; monomer brightness fixed, oligomer brightness and numbers freely varied; subunits estimated from a linear extrapolation of GFP brightness.

B1: Ste11-GFP (natural protein, budding yeast (S288C background), UniProt P23561 1-717, looked up)
chain: MEQTQTAEGTDLLIGDEKTNDLPFVQLFLEEIGCTQYLDSFIQCNLVTEEEIKYLDKDILIALGVNKIGDRLKILRKSKSFQRDKRIEQVNRLKNLMEKVSSLSTATLSMNSELIPEKHCVIFILNDGSAKKVNVNGCFNADSIKKRLIRRLPHELLATNSNGEVTKMVQDYDVFVLDYTKNVLHLLYDVELVTICHANDRVEKNRLIFVSKDQTPSDKAISTSKKLYLRTLSALSQVGPSSSNLLAQNKGISHNNAEGKLRIDNTEKDRIRQIFNQRPPSEFISTNLAGYFPHTDMKRLQKTMRESFRHSARLSIAQRRPLSAESNNIGDILLKHSNAVDMALLQGLDQTRLSSKLDTTKIPKLAHKRPEDNDAISNQLELLSVESGEEEDHDFFGEDSDIVSLPTKIATPKNWLKGACIGSGSFGSVYLGMNAHTGELMAVKQVEIKNNNIGVPTDNNKQANSDENNEQEEQQEKIEDVGAVSHPKTNQNIHRKMVDALQHEMNLLKELHHENIVTYYGASQEGGNLNIFLEYVPGGSVSSMLNNYGPFEESLITNFTRQILIGVAYLHKKNIIHRDIKGANILIDIKGCVKITDFGISKKLSPLNKKQNKRASLQGSVFWMSPEVVKQTATTAKADIWSTGCVVIEMFTGKHPFPDFSQMQAIFKIGTNTTPEIPSWATSEGKNFLRKAFELDYQYRPSALELLQHPWLDAHII
notes: Ste11, MAP kinase kinase kinase with a SAM domain, budding yeast; tagged at the chromosomal locus; source: expressed from its chromosomal locus in live yeast cells (S288C background); not shown: GFP, C-terminal, kept
Consider B1, for which the stoichiometry N – broadly, a count of units in the complex or per binding partner – with Ste50-mCherry was 2 Ste11 per Ste50.

B2: Ste50-GFP (natural protein, budding yeast (S288C background), UniProt P25344 1-346, looked up)
chain: MEDGKQAINEGSNDASPDLDVNGTILMNNEDFSQWSVDDVITWCISTLEVEETDPLCQRLRENDIVGDLLPELCLQDCQDLCDGDLNKAIKFKILINKMRDSKLEWKDDKTQEDMITVLKNLYTTTSAKLQEFQSQYTRLRMDVLDVMKTSSSSSPINTHGVSTTVPSSNNTIIPSSDGVSLSQTDYFDTVHNRQSPSRRESPVTVFRQPSLSHSKSLHKDSKNKVPQISTNQSHPSAVSTANTPGPSPNEALKQLRASKEDSCERILKNAMKRHNLADQDWRQYVLVICYGDQERLLELNEKPVIIFKNLKQQGLHPAIMLRRRGDFEEVAMMNGSDNVTPGGRL
notes: Ste50, SAM domain protein, budding yeast; tagged at the chromosomal locus; source: expressed from its chromosomal locus in live yeast cells (S288C background); not shown: GFP, C-terminal, kept
As to B2, the “stoichiometry N” value is roughly 4 in series [1], 3 to 4 in series [2] and 5 to 6 in series [3].
